From article PMC10724246 (Nature Communications, 2023)
No end group written: not given here.

Tests used:
[1] = target: wild-type SARS-CoV-2 S tail heptapeptide (1267Gly-Val-Lys-Leu-His-Tyr-Thr1273) (SARS-CoV-2); test: BLI; […]; pH 6.5 ([…]; 25 °C; Octet RED96; […]
[2] = target: clientized Thr1273Glu SARS-CoV-2 S tail heptapeptide (1267Gly-Val-Lys-Leu-His-Tyr-Glu1273) (SARS-CoV-2); test: BLI; […]; pH 6.5 ([…]; 25 °C; Octet RED96; […]
β‘WD40 domain (β‘-COPI) = target: T1, β‘WD40 domain (β‘-COPI) (Saccharomyces cerevisiae, UniProt P41811); test: biochemical; format: binding, S. cerevisiae; conditions: pH 6.5
T1 construct: strep-Hisx6-SUMO (N, cleaved yes); made in house; host or cells: E. coli BL21(DE3)pLysS
T1 sequence (P41811 1-304 limits assumed): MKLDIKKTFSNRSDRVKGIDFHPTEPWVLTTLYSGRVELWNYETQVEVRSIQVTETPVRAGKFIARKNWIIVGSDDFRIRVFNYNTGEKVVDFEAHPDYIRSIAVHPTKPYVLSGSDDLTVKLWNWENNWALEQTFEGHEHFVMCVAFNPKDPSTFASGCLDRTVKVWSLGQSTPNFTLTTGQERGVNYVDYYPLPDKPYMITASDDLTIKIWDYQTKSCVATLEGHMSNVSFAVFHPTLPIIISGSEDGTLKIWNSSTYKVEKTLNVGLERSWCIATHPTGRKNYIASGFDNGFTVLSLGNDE

αWD40 Arg13Ala mutant = target: T2, αWD40 Arg13Ala mutant (Schizosaccharomyces pombe, UniProt Q96WV5, R13A); test: biochemical; format: binding, S. pombe; conditions: pH 6.5
T2 construct: strep-tag (C); made in house; host or cells: Expi293 cells
T2 sequence (Q96WV5 1-327 R13A limits assumed): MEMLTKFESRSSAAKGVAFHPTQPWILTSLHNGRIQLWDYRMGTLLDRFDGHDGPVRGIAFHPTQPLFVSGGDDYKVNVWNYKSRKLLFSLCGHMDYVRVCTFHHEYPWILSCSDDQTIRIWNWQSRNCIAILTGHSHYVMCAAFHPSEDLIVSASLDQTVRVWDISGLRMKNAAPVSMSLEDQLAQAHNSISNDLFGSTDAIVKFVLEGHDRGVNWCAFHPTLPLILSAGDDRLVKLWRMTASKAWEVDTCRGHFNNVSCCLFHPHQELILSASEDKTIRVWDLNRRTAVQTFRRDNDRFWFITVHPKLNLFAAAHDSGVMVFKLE

αWD40 Arg300Ala mutant = target: T3, αWD40 Arg300Ala mutant (Schizosaccharomyces pombe, UniProt Q96WV5, R300A); test: biochemical; format: binding, S. pombe; conditions: pH 6.5
T3 construct: strep-tag (C); made in house; host or cells: Expi293 cells
T3 sequence (Q96WV5 1-327 R300A limits assumed): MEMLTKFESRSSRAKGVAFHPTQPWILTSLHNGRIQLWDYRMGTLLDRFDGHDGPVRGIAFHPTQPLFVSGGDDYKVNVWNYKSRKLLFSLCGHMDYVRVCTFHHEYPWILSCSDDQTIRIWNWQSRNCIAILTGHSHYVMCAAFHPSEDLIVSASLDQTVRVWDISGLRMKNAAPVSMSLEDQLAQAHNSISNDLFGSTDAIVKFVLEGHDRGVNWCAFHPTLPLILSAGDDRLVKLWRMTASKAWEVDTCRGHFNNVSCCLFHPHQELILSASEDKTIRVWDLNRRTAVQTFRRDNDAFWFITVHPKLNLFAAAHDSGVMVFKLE

[3] = target: clientized GST-S tail fusion, Thr1273Glu (SARS-CoV-2); test: pull-down
[4] = target: clientized GST-S tail fusion, Thr1273Asp (SARS-CoV-2); test: pull-down
[5] = target: Thr1273Glu clientized S tail 21mer peptide (BLI) (SARS-CoV-2); test: BLI; pH 7
[6] = target: Thr1273Glu clientized S tail 21mer peptide (BLI) (SARS-CoV-2); test: BLI; […]; pH 6.5 ([…]; 25 °C; Octet RED96; […]
[7] = target: amidated clientized Thr1273Glu S heptapeptide (SARS-CoV-2); test: BLI; […]; pH 6.5 ([…]; 25 °C; Octet RED96; […]
[8] = target: T4, S. cerevisiae β‘-COPI WD40 domain (β‘WD40), wild type (S. cerevisiae, UniProt P41811 1-301); test: BLI; […]; pH 6.5 ([…]; 25 °C; Octet RED96; […]; conditions: both partners purified
T4 sequence: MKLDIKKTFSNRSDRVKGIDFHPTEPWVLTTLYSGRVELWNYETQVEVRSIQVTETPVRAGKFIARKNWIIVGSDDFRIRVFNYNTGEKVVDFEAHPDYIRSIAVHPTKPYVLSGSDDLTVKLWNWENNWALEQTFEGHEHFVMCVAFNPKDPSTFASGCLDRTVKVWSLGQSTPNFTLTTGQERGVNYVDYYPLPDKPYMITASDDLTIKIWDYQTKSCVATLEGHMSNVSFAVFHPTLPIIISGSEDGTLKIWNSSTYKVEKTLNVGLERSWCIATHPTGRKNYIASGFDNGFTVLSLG

For “αWD40 Arg13Ala mutant (domain or fragment)”, the Kd [1] was 8500 nM, the koff [1] was 0.38 s⁻¹ and the kon [1] was 148000 M⁻¹ s⁻¹. For the same molecule, the Kd [2] was 3000 nM, the koff [2] was 0.22 s⁻¹ and the kon [2] was 132000 M⁻¹ s⁻¹.

Molecule “αWD40 Arg300Ala mutant (domain or fragment)” has a Kd [1] of 3600 nM, a koff [1] of 0.81 s⁻¹ and a kon [1] of 360000 M⁻¹ s⁻¹. It also gave a Kd [2] of 4200 nM, a koff [2] of 0.43 s⁻¹ and a kon [2] of 137000 M⁻¹ s⁻¹.

GVKLHYE [GVKLHYE] showed a koff (β‘WD40 domain (β‘-COPI)) of 1.27 ± 0.03 s⁻¹, a koff (αWD40 Arg13Ala mutant) of 0.22 ± 0.008 s⁻¹ and a koff (αWD40 Arg300Ala mutant) of 0.43 ± 0.003 s⁻¹.

In the case of GVKLHYT [GVKLHYT], the koff (αWD40 Arg13Ala mutant) is reported as 0.38 ± 0.007 s⁻¹ and the koff (αWD40 Arg300Ala mutant) is reported as 0.81 ± 0.007 s⁻¹.

“endogenous coatomer complex (mouse liver cytosol) (from UniProt Q8CIE6 1-1224; Q9JIF7 1-953; O55029 1-905; Q9QZE5 1-874; Q5XJY5 1-511; O89079 1-308; P61924 1-177)” showed a fold binding over the Lys-x-Lys-x-xCT dibasic mutant [3] of 2 fold, a fold binding over the wild-type GST-S tail construct [3] of 17 fold and a fold binding over the Lys-x-Lys-x-xCT dibasic mutant [4] of 2 fold. It also gave a fold binding over the wild-type GST-S tail construct [4] of 17 fold.

“S. pombe α-COPI WD40 domain (αWD40), wild type (domain or fragment)” showed a Kd [5] of 100 nM, a Kd [6] of 100 nM and a Kd [7] of 2300 nM.

B1: clientized Thr1273Glu SARS-CoV-2 S tail heptapeptide (1267Gly-Val-Lys-Leu-His-Tyr-Glu1273) (peptide)
peptide: GVKLHYE
notes: also called GVKLHYE; clientized S heptapeptide
For B1, the Kd [8] was 2300 ± 230 nM, the koff [8] was 1.27 s⁻¹ and the kon [8] was 2.42e+06 M⁻¹ s⁻¹.
